{"source": "patent US20190338009A1", "about": "(ZEALAND PHARMA A S, published 2019)", "key": {"[1]": {"biological_target": "T1, human GLP-2 receptor (hGLP2-R) (human, UniProt O95838 1-553)", "T1 sequence (looked up)": "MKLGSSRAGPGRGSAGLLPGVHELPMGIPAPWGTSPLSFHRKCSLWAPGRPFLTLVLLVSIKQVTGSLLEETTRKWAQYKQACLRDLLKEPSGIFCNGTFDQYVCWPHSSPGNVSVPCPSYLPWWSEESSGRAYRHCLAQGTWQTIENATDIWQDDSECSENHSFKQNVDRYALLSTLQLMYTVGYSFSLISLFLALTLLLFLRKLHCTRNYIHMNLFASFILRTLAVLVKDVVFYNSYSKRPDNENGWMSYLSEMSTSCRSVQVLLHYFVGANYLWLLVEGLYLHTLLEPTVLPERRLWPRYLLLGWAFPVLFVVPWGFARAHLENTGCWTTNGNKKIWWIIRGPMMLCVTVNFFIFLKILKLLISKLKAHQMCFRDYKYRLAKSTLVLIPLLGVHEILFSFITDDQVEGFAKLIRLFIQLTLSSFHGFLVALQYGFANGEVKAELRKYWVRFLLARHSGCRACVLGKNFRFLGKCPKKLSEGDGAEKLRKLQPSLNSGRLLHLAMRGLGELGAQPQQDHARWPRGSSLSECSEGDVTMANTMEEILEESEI", "experiment": "cell-based or functional assay"}, "[2]": {"biological_target": "human glucagon-like peptide 1 receptor (GLP-1R) (human, UniProt P43220 24-463)", "experiment": "cell-based or functional assay"}}, "note": "Square brackets hold non-standard residues; d marks the D form. Aib = CC(C)(N)C(=O)O"}
{"binder": "H-H[Aib]EGTFTSELATILDEQAARDFIAWLIRHKITD-OH (SMILES CC[C@H](C)[C@H](NC(=O)[C@H](Cc1ccccc1)NC(=O)[C@H](CC(=O)O)NC(=O)[C@H](CCCNC(=N)N)NC(=O)[C@H](C)NC(=O)[C@H](C)NC(=O)[C@H](CCC(N)=O)NC(=O)[C@H](CCC(=O)O)NC(=O)[C@H](CC(=O)O)NC(=O)[C@H](CC(C)C)NC(=O)[C@@H](NC(=O)[C@@H](NC(=O)[C@H](C)NC(=O)[C@H](CC(C)C)NC(=O)[C@H](CCC(=O)O)NC(=O)[C@H](CO)NC(=O)[C@@H](NC(=O)[C@H](Cc1ccccc1)NC(=O)[C@@H](NC(=O)CNC(=O)[C@H](CCC(=O)O)NC(=O)C(C)(C)NC(=O)[C@@H](N)Cc1c[nH]cn1)[C@@H](C)O)[C@@H](C)O)[C@@H](C)O)[C@@H](C)CC)C(=O)N[C@@H](C)C(=O)N[C@@H](Cc1c[nH]c2ccccc12)C(=O)N[C@@H](CC(C)C)C(=O)N[C@H](C(=O)N[C@@H](CCCNC(=N)N)C(=O)N[C@@H](Cc1c[nH]cn1)C(=O)N[C@@H](CCCCN)C(=O)N[C@H](C(=O)N[C@H](C(=O)N[C@@H](CC(=O)O)C(=O)O)[C@@H](C)O)[C@@H](C)CC)[C@@H](C)CC)", "note": "[Compound 17]", "values": [{"measurement": "EC50 GLP-2 (nM); cAMP AlphaScreen, HEK293 cells expressing human GLP-2R", "setting": "[1]", "result": 0.066, "unit": "nM"}, {"measurement": "EC50 GLP-1 (nM); cAMP AlphaScreen, HEK293 cells expressing human GLP-1R", "setting": "[2]", "result": 0.006, "unit": "nM"}]}
{"binder": "H-H[Aib]EGTFTSELATILDEQAARDFIAWLISHKITD-OH (SMILES CC[C@H](C)[C@H](NC(=O)[C@H](Cc1ccccc1)NC(=O)[C@H](CC(=O)O)NC(=O)[C@H](CCCNC(=N)N)NC(=O)[C@H](C)NC(=O)[C@H](C)NC(=O)[C@H](CCC(N)=O)NC(=O)[C@H](CCC(=O)O)NC(=O)[C@H](CC(=O)O)NC(=O)[C@H](CC(C)C)NC(=O)[C@@H](NC(=O)[C@@H](NC(=O)[C@H](C)NC(=O)[C@H](CC(C)C)NC(=O)[C@H](CCC(=O)O)NC(=O)[C@H](CO)NC(=O)[C@@H](NC(=O)[C@H](Cc1ccccc1)NC(=O)[C@@H](NC(=O)CNC(=O)[C@H](CCC(=O)O)NC(=O)C(C)(C)NC(=O)[C@@H](N)Cc1c[nH]cn1)[C@@H](C)O)[C@@H](C)O)[C@@H](C)O)[C@@H](C)CC)C(=O)N[C@@H](C)C(=O)N[C@@H](Cc1c[nH]c2ccccc12)C(=O)N[C@@H](CC(C)C)C(=O)N[C@H](C(=O)N[C@@H](CO)C(=O)N[C@@H](Cc1c[nH]cn1)C(=O)N[C@@H](CCCCN)C(=O)N[C@H](C(=O)N[C@H](C(=O)N[C@@H](CC(=O)O)C(=O)O)[C@@H](C)O)[C@@H](C)CC)[C@@H](C)CC)", "note": "[Compound 18]", "values": [{"measurement": "EC50 GLP-2 (nM); cAMP AlphaScreen, HEK293 cells expressing human GLP-2R", "setting": "[1]", "result": 0.054, "unit": "nM"}, {"measurement": "EC50 GLP-1 (nM); cAMP AlphaScreen, HEK293 cells expressing human GLP-1R", "setting": "[2]", "result": 0.006, "unit": "nM"}]}
{"binder": "H-H[Aib]EGTFTSELATILDEQAARDFIAWLIAQKITD-OH (SMILES CC[C@H](C)[C@H](NC(=O)[C@H](CC(C)C)NC(=O)[C@H](Cc1c[nH]c2ccccc12)NC(=O)[C@H](C)NC(=O)[C@@H](NC(=O)[C@H](Cc1ccccc1)NC(=O)[C@H](CC(=O)O)NC(=O)[C@H](CCCNC(=N)N)NC(=O)[C@H](C)NC(=O)[C@H](C)NC(=O)[C@H](CCC(N)=O)NC(=O)[C@H](CCC(=O)O)NC(=O)[C@H](CC(=O)O)NC(=O)[C@H](CC(C)C)NC(=O)[C@@H](NC(=O)[C@@H](NC(=O)[C@H](C)NC(=O)[C@H](CC(C)C)NC(=O)[C@H](CCC(=O)O)NC(=O)[C@H](CO)NC(=O)[C@@H](NC(=O)[C@H](Cc1ccccc1)NC(=O)[C@@H](NC(=O)CNC(=O)[C@H](CCC(=O)O)NC(=O)C(C)(C)NC(=O)[C@@H](N)Cc1c[nH]cn1)[C@@H](C)O)[C@@H](C)O)[C@@H](C)O)[C@@H](C)CC)[C@@H](C)CC)C(=O)N[C@@H](C)C(=O)N[C@@H](CCC(N)=O)C(=O)N[C@@H](CCCCN)C(=O)N[C@H](C(=O)N[C@H](C(=O)N[C@@H](CC(=O)O)C(=O)O)[C@@H](C)O)[C@@H](C)CC)", "note": "[Compound 19]", "values": [{"measurement": "EC50 GLP-2 (nM); cAMP AlphaScreen, HEK293 cells expressing human GLP-2R", "setting": "[1]", "result": 0.15, "unit": "nM"}, {"measurement": "EC50 GLP-1 (nM); cAMP AlphaScreen, HEK293 cells expressing human GLP-1R", "setting": "[2]", "result": 0.005, "unit": "nM"}]}
{"binder": "H-H[Aib]EGTFTSELATILDEQAARDFIAWLIAYKITD-OH (SMILES CC[C@H](C)[C@H](NC(=O)[C@H](CC(C)C)NC(=O)[C@H](Cc1c[nH]c2ccccc12)NC(=O)[C@H](C)NC(=O)[C@@H](NC(=O)[C@H](Cc1ccccc1)NC(=O)[C@H](CC(=O)O)NC(=O)[C@H](CCCNC(=N)N)NC(=O)[C@H](C)NC(=O)[C@H](C)NC(=O)[C@H](CCC(N)=O)NC(=O)[C@H](CCC(=O)O)NC(=O)[C@H](CC(=O)O)NC(=O)[C@H](CC(C)C)NC(=O)[C@@H](NC(=O)[C@@H](NC(=O)[C@H](C)NC(=O)[C@H](CC(C)C)NC(=O)[C@H](CCC(=O)O)NC(=O)[C@H](CO)NC(=O)[C@@H](NC(=O)[C@H](Cc1ccccc1)NC(=O)[C@@H](NC(=O)CNC(=O)[C@H](CCC(=O)O)NC(=O)C(C)(C)NC(=O)[C@@H](N)Cc1c[nH]cn1)[C@@H](C)O)[C@@H](C)O)[C@@H](C)O)[C@@H](C)CC)[C@@H](C)CC)C(=O)N[C@@H](C)C(=O)N[C@@H](Cc1ccc(O)cc1)C(=O)N[C@@H](CCCCN)C(=O)N[C@H](C(=O)N[C@H](C(=O)N[C@@H](CC(=O)O)C(=O)O)[C@@H](C)O)[C@@H](C)CC)", "note": "[Compound 20]", "values": [{"measurement": "EC50 GLP-2 (nM); cAMP AlphaScreen, HEK293 cells expressing human GLP-2R", "setting": "[1]", "result": 0.26, "unit": "nM"}, {"measurement": "EC50 GLP-1 (nM); cAMP AlphaScreen, HEK293 cells expressing human GLP-1R", "setting": "[2]", "result": 0.012, "unit": "nM"}]}
{"binder": "H-H[Aib]EGTFTSELATILDEQAARDFIAWLHQHKITD-OH (SMILES CC[C@H](C)[C@H](NC(=O)[C@H](Cc1ccccc1)NC(=O)[C@H](CC(=O)O)NC(=O)[C@H](CCCNC(=N)N)NC(=O)[C@H](C)NC(=O)[C@H](C)NC(=O)[C@H](CCC(N)=O)NC(=O)[C@H](CCC(=O)O)NC(=O)[C@H](CC(=O)O)NC(=O)[C@H](CC(C)C)NC(=O)[C@@H](NC(=O)[C@@H](NC(=O)[C@H](C)NC(=O)[C@H](CC(C)C)NC(=O)[C@H](CCC(=O)O)NC(=O)[C@H](CO)NC(=O)[C@@H](NC(=O)[C@H](Cc1ccccc1)NC(=O)[C@@H](NC(=O)CNC(=O)[C@H](CCC(=O)O)NC(=O)C(C)(C)NC(=O)[C@@H](N)Cc1c[nH]cn1)[C@@H](C)O)[C@@H](C)O)[C@@H](C)O)[C@@H](C)CC)C(=O)N[C@@H](C)C(=O)N[C@@H](Cc1c[nH]c2ccccc12)C(=O)N[C@@H](CC(C)C)C(=O)N[C@@H](Cc1c[nH]cn1)C(=O)N[C@@H](CCC(N)=O)C(=O)N[C@@H](Cc1c[nH]cn1)C(=O)N[C@@H](CCCCN)C(=O)N[C@H](C(=O)N[C@H](C(=O)N[C@@H](CC(=O)O)C(=O)O)[C@@H](C)O)[C@@H](C)CC)", "note": "[Compound 21]", "values": [{"measurement": "EC50 GLP-2 (nM); cAMP AlphaScreen, HEK293 cells expressing human GLP-2R", "setting": "[1]", "result": 0.11, "unit": "nM"}, {"measurement": "EC50 GLP-1 (nM); cAMP AlphaScreen, HEK293 cells expressing human GLP-1R", "setting": "[2]", "result": 0.049, "unit": "nM"}]}
{"binder": "H-H[Aib]EGSFTSELATILDEQAARDFIAWLHAHKITD-OH (SMILES CC[C@H](C)[C@H](NC(=O)[C@H](Cc1ccccc1)NC(=O)[C@H](CC(=O)O)NC(=O)[C@H](CCCNC(=N)N)NC(=O)[C@H](C)NC(=O)[C@H](C)NC(=O)[C@H](CCC(N)=O)NC(=O)[C@H](CCC(=O)O)NC(=O)[C@H](CC(=O)O)NC(=O)[C@H](CC(C)C)NC(=O)[C@@H](NC(=O)[C@@H](NC(=O)[C@H](C)NC(=O)[C@H](CC(C)C)NC(=O)[C@H](CCC(=O)O)NC(=O)[C@H](CO)NC(=O)[C@@H](NC(=O)[C@H](Cc1ccccc1)NC(=O)[C@H](CO)NC(=O)CNC(=O)[C@H](CCC(=O)O)NC(=O)C(C)(C)NC(=O)[C@@H](N)Cc1c[nH]cn1)[C@@H](C)O)[C@@H](C)O)[C@@H](C)CC)C(=O)N[C@@H](C)C(=O)N[C@@H](Cc1c[nH]c2ccccc12)C(=O)N[C@@H](CC(C)C)C(=O)N[C@@H](Cc1c[nH]cn1)C(=O)N[C@@H](C)C(=O)N[C@@H](Cc1c[nH]cn1)C(=O)N[C@@H](CCCCN)C(=O)N[C@H](C(=O)N[C@H](C(=O)N[C@@H](CC(=O)O)C(=O)O)[C@@H](C)O)[C@@H](C)CC)", "note": "[Compound 22]", "values": [{"measurement": "EC50 GLP-2 (nM); cAMP AlphaScreen, HEK293 cells expressing human GLP-2R", "setting": "[1]", "result": 0.042, "unit": "nM"}, {"measurement": "EC50 GLP-1 (nM); cAMP AlphaScreen, HEK293 cells expressing human GLP-1R", "setting": "[2]", "result": 0.28, "unit": "nM"}]}
{"binder": "H-H[Aib]EGSFTSELATILDEQAARDFIAWLYEHKITD-OH (SMILES CC[C@H](C)[C@H](NC(=O)[C@H](Cc1ccccc1)NC(=O)[C@H](CC(=O)O)NC(=O)[C@H](CCCNC(=N)N)NC(=O)[C@H](C)NC(=O)[C@H](C)NC(=O)[C@H](CCC(N)=O)NC(=O)[C@H](CCC(=O)O)NC(=O)[C@H](CC(=O)O)NC(=O)[C@H](CC(C)C)NC(=O)[C@@H](NC(=O)[C@@H](NC(=O)[C@H](C)NC(=O)[C@H](CC(C)C)NC(=O)[C@H](CCC(=O)O)NC(=O)[C@H](CO)NC(=O)[C@@H](NC(=O)[C@H](Cc1ccccc1)NC(=O)[C@H](CO)NC(=O)CNC(=O)[C@H](CCC(=O)O)NC(=O)C(C)(C)NC(=O)[C@@H](N)Cc1c[nH]cn1)[C@@H](C)O)[C@@H](C)O)[C@@H](C)CC)C(=O)N[C@@H](C)C(=O)N[C@@H](Cc1c[nH]c2ccccc12)C(=O)N[C@@H](CC(C)C)C(=O)N[C@@H](Cc1ccc(O)cc1)C(=O)N[C@@H](CCC(=O)O)C(=O)N[C@@H](Cc1c[nH]cn1)C(=O)N[C@@H](CCCCN)C(=O)N[C@H](C(=O)N[C@H](C(=O)N[C@@H](CC(=O)O)C(=O)O)[C@@H](C)O)[C@@H](C)CC)", "note": "[Compound 23]", "values": [{"measurement": "EC50 GLP-2 (nM); cAMP AlphaScreen, HEK293 cells expressing human GLP-2R", "setting": "[1]", "result": 0.034, "unit": "nM"}, {"measurement": "EC50 GLP-1 (nM); cAMP AlphaScreen, HEK293 cells expressing human GLP-1R", "setting": "[2]", "result": 0.12, "unit": "nM"}]}
